Measured values reported in patent publication US20180237497A1 (CANCER RESEARCH TECHNOLOGY, published 2018).
One block for each binder: values may come before it.

Assays:
[1] = target: T1, human IGF2^1-67 (mature insulin-like growth factor 2) (human, UniProt P01344 25-91, biotinylated (site not stated) where immobilised on the chip (Tables 1-4)); assay: SPR kinetic, biotin-IGF2 on chip
T1 construct: mature; also called mature IGF2; biotinylated IGF2
Description: (§1) Final kinetic analysis of mutants by SPR was conducted using a Biacore T200 biosensor at 25° C. in either HBS-EP (10 mM HEPES pH 7.4, 150 mM NaCl, 3 mM EDTA, and 0.005% (v/v) surfactant P20) or MES-EP (20 mM MES pH 6.5, 150 mM NaCl, 3 mM EDTA, and 0.005% (v/v) surfactant P20) at a flow-rate of 40 μL min⁻¹. […] For the analysis of the Fc-domain 11^AB5 interaction, approximately 50 RU of a biotinylated IGF2:biotinylated ubiquitin mixture (1:8 proportion) was immobilized on the CM5-streptavidin chip. This interaction was also analysed by immobilizing the Fc-domain 11^AB5 and Fc-domain 11^AB5-RHH (or Fc-domain 11^I1572A as control) by Human Antibody Capture (monoclonal mouse anti-human IgG antibody immobilised on a CM5 chip by amine coupling, GE Healthcare) with and without human IgG1 Fc fragment (Bethyl Laboratories, UK) in the control flow cell. […] T200 BiaEvaluation software (GE Healthcare) was used to fit the resulting curves according to a 1:1 binding model. Steady state affinities were determined using the kinetic data, taking the response average at 5 seconds before injection end and for 5 seconds average. Thermodynamic data was performed across the temperature range of 10° C. to 30° C., van't Hoff and Erying plots generated and ΔH, −TΔS and ΔG values determined as previously described.

[2] = target: T1, human IGF2^1-67 (mature insulin-like …); assay: SPR steady state, biotin-IGF2 on chip, pH 7.4
Description: as §1

[3] = target: T1, human IGF2^1-67 (mature insulin-like …); assay: SPR (Biacore T200, 25 °C, HBS-EP pH 7.4); ΔΔG° = RT ln(KD mutant / KD domain 11^AB3); box AB+FG
Description: Boxes show the change in the binding free energy contribution, ΔΔGº, for the indicated mutants. The loop/s that contains the mutation/s is indicated in each box. The ΔΔGº values were calculated as ΔΔGº=ΔGº domain 11^mutant−ΔGº domain 11^AB3=RTln(KD domain 11^mutant/KD domain 11^AB3). Additive and non-additive contributions of single point mutations are shown when calculated with a box solid line and dashed line, respectively.
as §1, with “average.” for “average. Thermodynamic data was performed across the temperature range of 10° C. to 30° C., van't Hoff and Erying plots generated and ΔH, −TΔS and ΔG values determined as previously described.”

[4] = target: T1, human IGF2^1-67 (mature insulin-like …); assay: SPR kinetic, biotin-IGF2 on chip, pH 7.4
Description: as §1

[5] = target: T1, human IGF2^1-67 (mature insulin-like …); assay: SPR
Source text: Surface plasmon resonance (SPR) binding analysis of recombinant M6P/IGF2R domain 11 mutants interaction with IGF2. Kon indicates association (on) rate; koff, dissociation (off) rate; RU, response units. Binding to IGF2 assessed with BIAcore T200 using purified biotinylated IGF2 and IGF1 on a streptavidin biosensor chip. Recombinant proteins were expressed either in E. coli and/or P. pastoris. All the mutants in the FG and CD loops are on the domain 11^AB5 background for the AB loop unless otherwise stated. All experiments were carried out at 25° C. in HBS-EP buffer (pH 7.4), were repeated 2-5 times on two independent BIAcore chips. nd=not determined. Data for KD expressed as mean of each experiment, and means of kon and koff are shown.
as §1, with “model.” for “model. Steady state affinities were determined using the kinetic data, taking the response average at 5 seconds before injection end and for 5 seconds average. Thermodynamic data was performed across the temperature range of 10° C. to 30° C., van't Hoff and Erying plots generated and ΔH, −TΔS and ΔG values determined as previously described.”

[6] = target: T1, human IGF2^1-67 (mature insulin-like …); assay: SPR steady state, biotin-IGF2 on chip
Description: as §1

[7] = target: T1, human IGF2^1-67 (mature insulin-like …); assay: SPR steady state, biotin-IGF2 on chip, pH 7.4; remark: listed apart in the source
In short: (§2)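 Biotinylated IGF2 captured on streptavidin chip; recombinant M6P/IGF2R domain 11 mutants (E. coli or P. pastoris) injected at 25° C in HBS-EP, pH 7.4, 40 μL min⁻¹. Kinetics fitted to 1:1 model; steady-state KD from 5 s response averages before injection end; 2-5 repeats on two chips.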

[8] = target: T1, human IGF2^1-67 (mature insulin-like …); assay: SPR kinetic, biotin-IGF2 on chip, pH 7.4; remark: listed apart in the source
In short: as §2

[9] = target: T1, human IGF2^1-67 (mature insulin-like …); assay: SPR, biotin-IGF2 on chip, pH 7.4
pro-IGF2^1-104 = pro-IGF2^1-104 (UniProt P01344 25-128); assay: SPR kinetic, Fc fusion captured by anti-human IgG, pH 7.4
Description: (§3) SPR analysis of the interaction of recombinant IGF1 and IGF2 forms with Fc-domain 11 proteins immobilised by antibody capture (CM5 chip containing monoclonal mouse anti-human IgG antibody immobilised by amine coupling). Measurements were carried out at 25° C. in HBS-EP buffer (pH 7.4).
as §1

pro-IGF2^1-156 = target: T2, pro-IGF2^1-156 (UniProt P01344 25-180); assay: as above
T2 construct: range 1-156
Description: as §3, §1

[10] = target: T1, human IGF2^1-67 (mature insulin-like …); assay: as above
Description: as §3, §1

T1 sequence (P01344 25-91): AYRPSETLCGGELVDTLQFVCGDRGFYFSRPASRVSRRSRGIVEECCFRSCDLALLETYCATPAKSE
Chain of pro-IGF2^1-104 (P01344 25-128 limits assumed): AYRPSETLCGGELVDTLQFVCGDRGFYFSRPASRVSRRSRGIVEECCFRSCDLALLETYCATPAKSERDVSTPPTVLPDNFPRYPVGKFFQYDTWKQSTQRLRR
T2 sequence (P01344 25-180 limits assumed): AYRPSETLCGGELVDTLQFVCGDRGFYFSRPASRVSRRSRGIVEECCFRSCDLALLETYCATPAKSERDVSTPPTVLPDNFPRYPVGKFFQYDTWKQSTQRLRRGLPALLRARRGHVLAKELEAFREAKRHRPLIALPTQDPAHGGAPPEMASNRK

Kd [1]: 1.23 nM | koff [1]: 0.013 s⁻¹ | kon [1]: 1.06e+07 M⁻¹ s⁻¹ | Kd [2]: 1.76 nM | ΔΔG [3]: -1.49 kcal/mol | Kd [4]: 1.23 nM | koff [4]: 0.013 s⁻¹ | kon [4]: 1.06e+07 M⁻¹ s⁻¹ | fold change of KD against domain 11^AB3 [5]: 10 fold | fold reduction of koff against domain 11^AB3 [5]: 4 fold | Kd [6]: 1.76 nM
B1: domain 11^AB3 P1597H (receptor)
chain: MKSNEHDDCQVTNPSTGHLFDLSSLSGRAGFTAAYSKSGVVYMSICGENENCPPGVGACFGQTRISVGKANKRLRYVDQVLQLVYKDGSHCPSKSGLSYKSVISFVCRPEAGPTNRPMLISLDKQTCTLFFSWHTPLACEQATECSV
notes: See m5; also called AB3 + 62B (FG-P1597H)

Kd [7]: 5.44 nM | ΔΔG [3]: -0.93 kcal/mol | fold improvement of affinity [5]: ≤ 2 fold | Kd [8]: 3.19 nM | koff [8]: 0.0112 s⁻¹ | kon [8]: 3.61e+06 M⁻¹ s⁻¹
B2: domain 11^AB5 S1602H (receptor)
chain: MKSNEHDDCQVTNPSTGHLFDLSSLSGRAGFTAAYAKGWGVYMSICGENENCPPGVGACFGQTRISVGKANKRLRYVDQVLQLVYKDGSPCPSKHGLSYKSVISFVCRPEAGPTNRPMLISLDKQTCTLFFSWHTPLACEQATECSV
notes: See m5

koff [9]: 0.012 s⁻¹
B3: domain 11^AB3 P1597H HI^23D (receptor)
chain: MKSNEHDDCQVTNPSTGHLFDLSSLSGRAGFTAAYSKSGVVYMSICGENENCPPGVGACFGQTRISVGKANKRLRYVDQVLQLVYKDGSHCPSKSGLSYKSVISFVCRPEAGPTNRPMLISLHFQSCTLFFSWHTPLACEQATECSV
notes: See m5; Only koff printed

Kd [2]: 2.79 nM | ΔΔG [3]: -1.23 kcal/mol | Kd [4]: 1.9 nM | koff [4]: 0.007 s⁻¹ | kon [4]: 3.68e+06 M⁻¹ s⁻¹
B4: domain 11^AB5 P1597H (receptor)
chain: MKSNEHDDCQVTNPSTGHLFDLSSLSGRAGFTAAYAKGWGVYMSICGENENCPPGVGACFGQTRISVGKANKRLRYVDQVLQLVYKDGSHCPSKSGLSYKSVISFVCRPEAGPTNRPMLISLDKQTCTLFFSWHTPLACEQATECSV
notes: See m5

koff [9]: 0.005 s⁻¹
B5: domain 11^AB5 Q1569R P1597H S1602H G1603K (receptor)
chain: MKSNEHDDCQVTNPSTGHLFDLSSLSGRAGFTAAYAKGWGVYMSICGENENCPPGVGACFGRTRISVGKANKRLRYVDQVLQLVYKDGSHCPSKHKLSYKSVISFVCRPEAGPTNRPMLISLDKQTCTLFFSWHTPLACEQATECSV
notes: See m5; Only koff printed; other cells np (no protein)

koff [9]: 0.008 s⁻¹
B6: domain 11^AB5 Q1569R P1597K S1602H G1603K (receptor)
chain: MKSNEHDDCQVTNPSTGHLFDLSSLSGRAGFTAAYAKGWGVYMSICGENENCPPGVGACFGRTRISVGKANKRLRYVDQVLQLVYKDGSKCPSKHKLSYKSVISFVCRPEAGPTNRPMLISLDKQTCTLFFSWHTPLACEQATECSV
notes: as for B5

koff [9]: 0.012 s⁻¹
B7: domain 11^AB5 HI^23D (receptor)
chain: MKSNEHDDCQVTNPSTGHLFDLSSLSGRAGFTAAYAKGWGVYMSICGENENCPPGVGACFGQTRISVGKANKRLRYVDQVLQLVYKDGSPCPSKSGLSYKSVISFVCRPEAGPTNRPMLISLHFQSCTLFFSWHTPLACEQATECSV
notes: as for B5

Kd [7]: 4.54 nM | ΔΔG [3]: -1.02 kcal/mol | fold improvement of affinity [5]: ≤ 2 fold | Kd [8]: 2.73 nM | koff [8]: 0.0121 s⁻¹ | kon [8]: 4.66e+06 M⁻¹ s⁻¹
B8: domain 11^AB5 G1603K (receptor)
chain: MKSNEHDDCQVTNPSTGHLFDLSSLSGRAGFTAAYAKGWGVYMSICGENENCPPGVGACFGQTRISVGKANKRLRYVDQVLQLVYKDGSPCPSKSKLSYKSVISFVCRPEAGPTNRPMLISLDKQTCTLFFSWHTPLACEQATECSV
notes: See m5

Kd (pro-IGF2^1-104): 0.39 nM | koff (pro-IGF2^1-104): 0.0005 s⁻¹ | kon (pro-IGF2^1-104): 1.29e+06 M⁻¹ s⁻¹ | Kd (pro-IGF2^1-156): 1.13 nM | koff (pro-IGF2^1-156): 0.0003 s⁻¹ | kon (pro-IGF2^1-156): 230000 M⁻¹ s⁻¹ | Kd [10]: 0.54 nM | koff [10]: 0.0014 s⁻¹ | kon [10]: 2.6e+06 M⁻¹ s⁻¹
B9: Fc-domain 11^AB5-RHH (IGF2-TRAP) (Fc fusion, not shown: a dimerising Fc or GST)
chain: NEHDDCQVTNPSTGHLFDLSSLSGRAGFTAAYAKGWGVYMSICGENENCPPGVGACFGRTRISVGKANKRLRYVDQVLQLVYKDGSHCPSKHGLSYKSVISFVCRPEAGPTNRPMLISLDKQTCTLFFSWHTPLACEQAT
notes: RHH is not defined in words; read as Q1569R P1597H S1602H on AB5; IgG2 Fc is stated for the CHO product; also called IgG2 Fc-domain 11^AB5-RHH; Fc-domain 11^RHH

Kd (pro-IGF2^1-104): 4.41 nM | koff (pro-IGF2^1-104): 0.002 s⁻¹ | kon (pro-IGF2^1-104): 520000 M⁻¹ s⁻¹ | Kd (pro-IGF2^1-156): 2.71 nM | koff (pro-IGF2^1-156): 0.0008 s⁻¹ | kon (pro-IGF2^1-156): 290000 M⁻¹ s⁻¹
B10: Fc-domain 11^I1572A fusion protein (Fc fusion)
chain: NEHDDCQVTNPSTGHLFDLSSLSGRAGFTAAYSEKGLVYMSICGENENCPPGVGACFGQTRASVGKANKRLRYVDQVLQLVYKDGSPCPSKSGLSYKSVISFVCRPEAGPTNRPMLISLDKQTCTLFFSWHTPLACEQAT
notes: not shown: human IgG Fc
